Test results: publication PMC7126681

Columns and labels:
[1] = molecular target: His-tagged griffithsin (SeMet-labeled, E. coli-expressed) (Griffithsia sp.) (UniProt P84801); experiment: crystal structure
[2] = molecular target: plant-expressed griffithsin (Griffithsia sp.) (UniProt P84801); experiment: crystal structure

**Q.** How did the stoichiometry N [1] turn out when “His-tagged griffithsin (SeMet-labeled, E. coli-expressed) (from UniProt P84801 1-121) (natural protein)” was run?
**A.** 2

**Q.** For “plant-expressed griffithsin (from UniProt P84801 1-121) (natural protein)”, which stoichiometry N [2] is on record?
**A.** 2
